Here are results for four molecules from paper PMC8064835 (Cell, 2021).

The target of test [1] is T1, SARS-CoV-2 receptor-binding domain (RBD) (SARS-CoV-2, UniProt P0DTC2). Briefly: ELISA. A general note: ELISA stands for enzyme-linked immunosorbent assay.
Test [2] concerns the target T1, SARS-CoV-2 receptor-binding domain (RBD). Briefly: crystal structure.

B1: BG4–14 IgG1 (antibody, V domains shown)
VH: not shown
VL: QSALTQPASVSGSPGQSITISCTGTSSDVGSYNLVSWYQHHPGKAPKLMIYEVSKRPSGVSNRFSGSKSGNTASLTISGLQAEDETDYYCCSYAGSSTLVFGGGTKLTVL
Regarding B1, in test [1], the binding result is “binds”.

B2: BG4–25 Fab (Fab, V domains shown)
VH: EVQLVESGGGLIQPGGSLRLSCAASGITVVRNYMTWVRQAPGKGLEWVSVIYSGGTTYYADSVKGRFTISRDNSKNTMYLQMNSLRAEDTAIYYCARDLEVVGAMDVWGQGTTVTVSS
VL: EIVLTQSPGTLSLSPGERATLSCRASQSVPSSYLAWYQQKPGQAPRLLIYGASSRATGIPDRFSGSGSGTDFTLTISRLEPEDFAVYYCQQYGSPMYTFGQGTKLEIK
Take B2: the binding result in test [2] is “binds”.

B3: BG10–19 IgG1 (antibody, V domains shown)
VH: EVQLVQSGAEVKKPGESLKISCKGSGYSFTSYWIGWVRQMPGKGLEWMGVIYPGDSDTRYSPSFQGQVTISADKSISTAYLQWSSLKASDTAMYYCARTQWGYNYGSHFFYMDVWGKGTTVTVSS
VL: QSVLTQPPSASGTPGQRVTISCSGSSSNIGSDHVYWYQQLPGTAPKLFIYRNNQRPSGVPDRFSGSKSGTSASLAISGLRSEDEADYYCAAWDASLSGYVFGTGTKVTVL
For B3, the binding result in test [1] is on record as “binds”.

B4: BG10–19 Fab (Fab, V domains shown)
VH: B3 VH
VL: B3 VL
In the case of B4, the binding result in test [1] was “binds”.
